Patent US20210388087A1 (Chugai, published 2021)

B1: H183/L072 VL Q27H (antibody, name in Kabat numbering, V domains shown)
VH: QVQLVESGGGLVQPGRSLRLSCAASGFTFSNAWMHWVRQAPGKGLEWVAQIKDKGNAYAAYYAPSVKGRFTISRDDSKNSIYLQMNSLKTEDTAVYYCHYVHYASASTVLPAFGVDAWGQGTTVTVSS
VL: DIVMTQSPLSLPVTPGEPASISCQASHELVHMNRNTYLHWYQQKPGQAPRLLIYKVSNRFPGVPDRFSGSGSGTDFTLKISRVEAEDVGVYYCAQGTSVPFTFGQGTKLEIK
notes: Dual-Ig
B2: H183/L072 VL Q27I (antibody, name in Kabat numbering, V domains shown)
VH: QVQLVESGGGLVQPGRSLRLSCAASGFTFSNAWMHWVRQAPGKGLEWVAQIKDKGNAYAAYYAPSVKGRFTISRDDSKNSIYLQMNSLKTEDTAVYYCHYVHYASASTVLPAFGVDAWGQGTTVTVSS
VL: DIVMTQSPLSLPVTPGEPASISCQASIELVHMNRNTYLHWYQQKPGQAPRLLIYKVSNRFPGVPDRFSGSGSGTDFTLKISRVEAEDVGVYYCAQGTSVPFTFGQGTKLEIK
notes: Dual-Ig
B3: H183/L072 VL Q27K (antibody, name in Kabat numbering, V domains shown)
VH: QVQLVESGGGLVQPGRSLRLSCAASGFTFSNAWMHWVRQAPGKGLEWVAQIKDKGNAYAAYYAPSVKGRFTISRDDSKNSIYLQMNSLKTEDTAVYYCHYVHYASASTVLPAFGVDAWGQGTTVTVSS
VL: DIVMTQSPLSLPVTPGEPASISCQASKELVHMNRNTYLHWYQQKPGQAPRLLIYKVSNRFPGVPDRFSGSGSGTDFTLKISRVEAEDVGVYYCAQGTSVPFTFGQGTKLEIK
notes: Dual-Ig
B4: H183/L072 VL Q27L (antibody, name in Kabat numbering, V domains shown)
VH: QVQLVESGGGLVQPGRSLRLSCAASGFTFSNAWMHWVRQAPGKGLEWVAQIKDKGNAYAAYYAPSVKGRFTISRDDSKNSIYLQMNSLKTEDTAVYYCHYVHYASASTVLPAFGVDAWGQGTTVTVSS
VL: DIVMTQSPLSLPVTPGEPASISCQASLELVHMNRNTYLHWYQQKPGQAPRLLIYKVSNRFPGVPDRFSGSGSGTDFTLKISRVEAEDVGVYYCAQGTSVPFTFGQGTKLEIK
notes: Dual-Ig
B5: H183/L072 VL Q27M (antibody, name in Kabat numbering, V domains shown)
VH: QVQLVESGGGLVQPGRSLRLSCAASGFTFSNAWMHWVRQAPGKGLEWVAQIKDKGNAYAAYYAPSVKGRFTISRDDSKNSIYLQMNSLKTEDTAVYYCHYVHYASASTVLPAFGVDAWGQGTTVTVSS
VL: DIVMTQSPLSLPVTPGEPASISCQASMELVHMNRNTYLHWYQQKPGQAPRLLIYKVSNRFPGVPDRFSGSGSGTDFTLKISRVEAEDVGVYYCAQGTSVPFTFGQGTKLEIK
notes: Dual-Ig
B6: H183/L072 VL Q27N (antibody, name in Kabat numbering, V domains shown)
VH: QVQLVESGGGLVQPGRSLRLSCAASGFTFSNAWMHWVRQAPGKGLEWVAQIKDKGNAYAAYYAPSVKGRFTISRDDSKNSIYLQMNSLKTEDTAVYYCHYVHYASASTVLPAFGVDAWGQGTTVTVSS
VL: DIVMTQSPLSLPVTPGEPASISCQASNELVHMNRNTYLHWYQQKPGQAPRLLIYKVSNRFPGVPDRFSGSGSGTDFTLKISRVEAEDVGVYYCAQGTSVPFTFGQGTKLEIK
notes: Dual-Ig
B7: H183/L072 VL Q27P (antibody, name in Kabat numbering, V domains shown)
VH: QVQLVESGGGLVQPGRSLRLSCAASGFTFSNAWMHWVRQAPGKGLEWVAQIKDKGNAYAAYYAPSVKGRFTISRDDSKNSIYLQMNSLKTEDTAVYYCHYVHYASASTVLPAFGVDAWGQGTTVTVSS
VL: DIVMTQSPLSLPVTPGEPASISCQASPELVHMNRNTYLHWYQQKPGQAPRLLIYKVSNRFPGVPDRFSGSGSGTDFTLKISRVEAEDVGVYYCAQGTSVPFTFGQGTKLEIK
notes: Dual-Ig
B8: H183/L072 VL Q27R (antibody, name in Kabat numbering, V domains shown)
VH: QVQLVESGGGLVQPGRSLRLSCAASGFTFSNAWMHWVRQAPGKGLEWVAQIKDKGNAYAAYYAPSVKGRFTISRDDSKNSIYLQMNSLKTEDTAVYYCHYVHYASASTVLPAFGVDAWGQGTTVTVSS
VL: DIVMTQSPLSLPVTPGEPASISCQASRELVHMNRNTYLHWYQQKPGQAPRLLIYKVSNRFPGVPDRFSGSGSGTDFTLKISRVEAEDVGVYYCAQGTSVPFTFGQGTKLEIK
notes: Dual-Ig

biological target: T1, Human CD137 ECD (human); assay: Biacore SPR, vs parent H183/L072
T1 construct: entry includes C-terminal His-tag and biotin acceptor peptide; also called human CD137 extracellular domain; 4-1BB
T1 sequence (chain, as listed by the source limits assumed): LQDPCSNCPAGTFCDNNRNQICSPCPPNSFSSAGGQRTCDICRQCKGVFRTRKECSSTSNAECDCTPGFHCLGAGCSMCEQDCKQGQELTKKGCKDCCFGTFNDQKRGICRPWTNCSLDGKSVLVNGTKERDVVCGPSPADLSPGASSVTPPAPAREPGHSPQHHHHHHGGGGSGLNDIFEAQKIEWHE

| fold change of affinity | Binder |
| --- | --- |
| 0.9 fold | B1 |
| 0.7 fold | B2 |
| 0.9 fold | B3 |
| 0.8 fold | B4 |
| 0.9 fold | B5 |
| 0.8 fold | B6 |
| 0.1 fold | B7 |
| 0.9 fold | B8 |
